Tested on: K4 kissing-loop RNA reporter
Test: apparent KD of K4 kissing-loop reporter; higher = weaker reporter binding
Conditions: Eterna round: R107
Protocol: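 RNA-MaP round R107: designed RNA switches with theophylline, tryptophan, arginine or FMN aptamers are transcribed on-chip within common flanks. They are titrated with a labelled K4 kissing-loop RNA reporter in RNA-MaP buffer (100 mM Tris pH 7.5, 80 mM KCl, 4 mM MgCl2), without ligand or with the indicated ligand. Median apparent KD per design.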

[1] = input ligand: theophylline 20 uM
[2] = input ligand: tryptophan 2.4 mM
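Also: bound reporter read as fluorescence of individual clusters on recovered sequencing chips by microscopy, with normalized cluster intensities fitted with a binding model.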

Sequence | apparent KD of K4 kissing-loop reporter (input ligand: FMN 200 uM) | apparent KD of K4 kissing-loop reporter (input ligand: arginine 13.2 mM) | apparent KD of K4 kissing-loop reporter (input ligand: none) | apparent KD of K4 kissing-loop reporter [1] | apparent KD of K4 kissing-loop reporter [2]
CCGAAGAACCAGUGAUGUUGGUUGACUAGACAGGAUAUGAGCAACAUCAGAAGGGUCUGGCUUCGGGAGUGGGCCGCGCUGACCU [Artilati] | 324 nM | 193 nM | 240 nM | 1210 nM | 395 nM
AUCUAGAUGCGAAGGAGCGCCUCAACGCGCUAUCUAUGGAGUGAUGUUCCAACGUAUGAGAGGCAGGUAGGUCGCGCAUCUAGAA [Arg B Ex t1] | 129 nM | 113 nM | 132 nM | 117 nM | 115 nM
ACCUAGUACGUAGGAUAUCGAACAUCAUUUAGUGAGAUCGAGUGAUGUUCGAUCACGUCUUCAGUUCGAGAAGGACGUACUAGGA [FMN B SS t4] | 335 nM | 273 nM | 302 nM | 477 nM | 351 nM
CGCCGCAAGGCGAGCGCUCCCACUCCGGAAGGAGCGCCCGAAAGGGCAGGUAGGUCGCCGGAGUGAUGUUCCGGUGGAGGGCUCG [#2 Exclusion - Arginine A Attempt #27 (Inspired by Omei)] | 379 nM | 185 nM | 432 nM | 360 nM | 529 nM
AGGAAGUGAGAAGGAUAUUACACUCGGAAGCGCUAGUGAUGUUAGCAUAGAAACAAGGGAACAUGGUAAGAAGGUCUUACAAUGA [theeternabot_sameState_KL_FMN_B_2] | 76.6 nM | 71.6 nM | 38.9 nM | 69.5 nM | 40.1 nM
UAUCAGAUUACUGAUACCAGUCUAAAGACAGUGAUGUUGUCUGAUCGACCACGAUCCAAGGACCCUUGGCAGCAGUGUACUAUUC [#30 K4 Theophylline B Same State] | 177 nM | 183 nM | 194 nM | 205 nM | 191 nM
AAGGGCUAGGCGGCCGCCACUGGUCGUGAACACAUACGAGCCAGUGAUGUUGGUAUUGUGUGCGGCAGGACCGGGCCUAGCCGAA [Exclusion - Tryptophan B (Freestyle 24)] | 343 nM | 338 nM | 391 nM | 409 nM | 462 nM
GCCGUACGCAUGGAUACCAGUCUUAGAGUGAUGUUCUAUACGAUUGCGCCUGGAUCAAUGGACCCUUGGCAGCCAUGCGUACGGC | 144 nM | 112 nM | 123 nM | 114 nM | 124 nM
GGGCCUCUGGCUGAUACCAGUGAUAAAGGGUAAGAGACAGGGAGUGAUGUUCCCUUUAGCCACCCUUGGCAGCAGUUUAAGUUUG [Exclusion Theophylline B GF 18] | 84.8 nM | 82.8 nM | 85.5 nM | 86.6 nM | 77.3 nM
AGACCACAAAGUGGUCAGUGUUCGCUGCAGCGAGGACCGGUACGGCCGCCACUCGCGAGUGAUGUUCGCGAGAGCAGCGAACACA [Omei KL Tryp A Exc A v6] | 90.9 nM | 83.4 nM | 82.1 nM | 87.3 nM | 116 nM
CCAUCGCUAUUCGAUACCAGUCUUUUUUAUUUAUAAAAUCUGCAAAGGAGUGAUGUUCCAGACCCUUGGCAGCGAAUAGUGAUGG [Theophylline B K4 3] | 401 nM | 441 nM | 464 nM | 570 nM | 459 nM
UUUGUAUCGGGAAGGAGCGUGAAUGAUAAUGAAUAUAGUGAUGUUAUAUAUAAGAACGAAUCACAGGUAGGUCGCCCGGAUGACU [SSArgB.O] | 747 nM | 555 nM | 515 nM | 729 nM | 364 nM
GGUAGCAUGGCGGCCGCCACUGUCUAGUGAUGUUAGACCCGACGUGGAUUCAAGACAGUCGGAAACAGGACCGGGCCAUGCUACC | 390 nM | 229 nM | 330 nM | 163 nM | 179 nM
AGACUACUGAUAGGAUAUAACAUACUAACUCGUAUACCAAAGGUAUACGAGACCCUUCUAGUGAUGUUAGAAGGGUCGGUAGUCA [Omei KL FMN B Exc B v6] | 82.2 nM | 74 nM | 76.3 nM | 74.8 nM | 73.9 nM
UUUUAGGUAUCUGAUACCAGAGAAAAUAUAUGUAGUGAUGUUAUAUACAAAAUAAUUAAGCUCCCUUGGCAGCAGUUUUAAUUUU [AstrosExc-TheB#5] | 872 nM | 730 nM | 902 nM | 763 nM | 633 nM
CUAUGGAAACAUAGGAGUCGGGAAACCGAUACCAGUAUGGAAACAUACCCUUGGCAGCGGAAUGAUUCAACGGAGUGAUGUUCCG [Theophylline A K4 19] | 458 nM | 366 nM | 400 nM | 322 nM | 366 nM
GUUACGCAUGGAAGGAGCGCACUCCGAUUGAUCGACACAGUGAUGUUGUGGUUCGUUCGAAUGCAGGUAGGUCGCCAUGUGUAAC [Ex Arginine B K4 17] | 259 nM | 250 nM | 253 nM | 303 nM | 233 nM
UGUGCCAAAUGUGAUACCAGCUUCCUGCAGUGAUGUUGCAUACGAGUGAUGUUCGUCCGAGGCCCUUGGCAGCGCAGUCGUUUGA [Same State Theophylline B GF 27] | 450 nM | 442 nM | 528 nM | 437 nM | 352 nM
ACGUCCCGUUUACUCGUGGGUUAGGUCGAUACCAGUAUUCAAACUUACCCUUGGCAGCGACAUGAGUGAUGUUCAUGUGCGAAGA [KL-XTheo-A5 #analogue] | 114 nM | 96.2 nM | 108 nM | 108 nM | 104 nM
GGUGUUGUUUGUGCUGUUUUCUUUGUUUCUCGAGGACCGGUACGGCCGCCACUCGAGUGAUGUUUGGGUAGUGAUGUUUGUUAGU [Bdazzled #1 Exc. TA] | 241 nM | 147 nM | 198 nM | 180 nM | 239 nM
UGUAUAUGAUGUGAUACCAGUGAAGAGCCAGUGAUGUUGGUAGAACUGGUAUAUAAAUAACACCCUUGGCAGCACAAUCACGUAC [whbob_Ex_Theo_B_sa98] | 192 nM | 188 nM | 202 nM | 265 nM | 196 nM
CCGUAGCGAUCGGCCGCCACUCAAGAUCGCCAACUAUCACACGGUUCUCCCGAGUGAUGUUCUAGGAGGACCGGGAUUGUUGCUC [theeternabot_exclusion_KL_Trp_B_13] | 421 nM | 322 nM | 378 nM | 374 nM | 388 nM

Sequence | apparent KD of K4 kissing-loop reporter (input ligand: FMN 200 uM) | apparent KD of K4 kissing-loop reporter (input ligand: arginine 13.2 mM) | apparent KD of K4 kissing-loop reporter (input ligand: none) | apparent KD of K4 kissing-loop reporter [1] | apparent KD of K4 kissing-loop reporter [2]
AACGUAGCUACUGAUACCAGACUUUUUCUUGUAUAUUAGUCAAGUGAUGUUUGACUUUUAGUCCCUUGGCAGCAGUUGCUACGAA [JR_Nu_SSTheophyB_Sub028] | 89.2 nM | 84.3 nM | 91.4 nM | 82.6 nM | 98.3 nM
UUUCGUUGAAGUGAUACCAGACUUGAAAGUGAUGUUUUCCAAUAAUUUAAAUUAUUAGCUGUCCCUUGGCAGCACAGUUUAUUUA [JR_ExcTheophyB_Sub007] | 255 nM | 371 nM | 327 nM | 443 nM | 208 nM
ACCUACCAUUAGUGAUGUUAAUGGACGGAAGGAGCGCAGAUAUCUGCAGGUAGGUCGCCGAAGGCUAGACAUUGUCUAGCCAUUU [AK1.3 SS Arginine A] | 192 nM | 161 nM | 217 nM | 155 nM | 180 nM
AAAAUAAACCAGUGAUGUUGGUGUCCAGAUACCAGCGACAAAAGUCGCCCUUGGCAGCUGUGGACGUACAAAAUAAGUACGUCCU [MatMod 1 - Jieux - Same State - Theophylline A] | 390 nM | 271 nM | 393 nM | 256 nM | 316 nM
UAGGAGUGAUGUUCCAUAUCUUGAGCCGAAGGAGCGCCUUUAUAGGCAGGUAGGUCGCGGCAGAAGGUACCAGUGAUGUUGGAAA [Same State Arginine A GF6] | 147 nM | 147 nM | 164 nM | 145 nM | 135 nM
GCUCAGGAGUGAUGUUCCAAGUGAUGUUAACGAGGACCGGUACGGCCGCCACUCGAUACGGCCGGACCGUAGGAUAAACUAGAGC [Same State - Tryptophan A (Freestyle 9)] | 200 nM | 171 nM | 183 nM | 313 nM | 244 nM
UGUGUUGUUUUGAUGUUUGGUGUAAGUUGGCAGGAUAUCGUAGAGGCGAGAAGGGCUUUUAUGCGUUAUGAGUGAUGUUUGUAGG [zrrzmullin] | 640 nM | 330 nM | 538 nM | 404 nM | 699 nM
UGCUUAGUGAUGUUUGAUUUGGUGCAUGCAGAGGAUAUAGGGUGCUUUAGAAGGCUGAGGAGUGCGCCGAGUGAUGUUCGGCGCU [Exclusion FMN A GF11] | 192 nM | 164 nM | 206 nM | 182 nM | 170 nM
UUGGAGUGAUGUUCCAUAUCUUGAGCGGAAGGAGCGGCAAAAGUGCCAGGUAGGUCGCCGCAGAAGGUACCAGUGAUGUUGGAAA [Same State Arginine A GF 3] | 132 nM | 152 nM | 155 nM | 156 nM | 109 nM
AAACAUCACUGGGAGUGAUGUUCUCAGUGACGAGGACCGGUACGGCCGCCACUCGCGAGAGAUAUAAAUGAGUAAUGACAUCAUU [Excl Tryptophan A V2] | 276 nM | 236 nM | 280 nM | 258 nM | 325 nM
UACUGGGCGAGUGAUGUUCGCUCACGUGAUACCAGUGCCAUCCAACACCCUUGGCAGCACGCGGGCAGUGAUGUUGUCCUUGUAU [Exclusion Theophylline A GF 5] | 127 nM | 112 nM | 123 nM | 129 nM | 111 nM
AACUCUCAGGCACGCGAGUGAUGUUCGCGCCGAGGACCGGUACGGCCGCCACUCGGGCCUGAGAGAGGUUAUCAAAGAUAGCCAA [whbob_SS_tryp_A] | 306 nM | 105 nM | 137 nM | 204 nM | 250 nM
AGUUCCUCUGUCGAUACCAGCUUCAGUUGGCGGCCAGUGAUGUUGGUAUCGCCGAUGCCAAGCCCUUGGCAGCGACAUGAGACCC [Lausso] | 188 nM | 187 nM | 169 nM | 111 nM | 197 nM
UGUAUGUGAUUUGAUACCAGACCAUCUUGUGAAUGAUGAGUGAUGUUUAUUAUGGUUUGGGUCCCUUGGCAGCAAAUCGCAUACU [KL-SSTheoB25] | 926 nM | 717 nM | 976 nM | 781 nM | 803 nM
UUUCGUUUCGUCUGACAUAAUUGGCUAGAAGGAGCGGUAAAAUUACCAGGUAGGUCGCUAGCCCAGUGAUGUUGGGACUAGCAUA [Onqudi] | 148 nM | 154 nM | 133 nM | 156 nM | 171 nM
UAUAUAGUGAUGUUAUAUAUACAUUCGGAAGGAGCGUGGUAAAACACAGGUAGGUCGCUGAAAUAAUUAAAAUAAUUUUCUUUUU [AstrosSSArgA#1] | 255 nM | 231 nM | 279 nM | 239 nM | 231 nM
GCCAGUGAUGUUGGCAUUUCGAGCCAUGAAGGAGCGCACGGAAGUGCAGGUAGGUCGCAUGGUACUUAAGAUAUUAUCCUAAGUA [Atceis] | 210 nM | 162 nM | 192 nM | 177 nM | 129 nM
AUAAACUUGCAGUGAUGUUGCAAGUGAGACUAGGAUAUCAGGAAGCUGAGAAGGAGUCAUCUCCUUCAGACAUCACUAUGAAGGA [whbob_SS_FMNA__2th179] | 334 nM | 191 nM | 251 nM | 205 nM | 232 nM
UGAUACCAGACGGCCGCCACUCCUGCAAGUCAAAGACUUGCUAAGGAAAUCGUCCAGUGAUGUUGGAGGACCGGGUCUGGUAUCU [TrypBX 17 #SwitchBubble #Palindromic #StaticStem] | 931 nM | 670 nM | 830 nM | 717 nM | 899 nM
GCCUAGCAGGGAAGGAGCGGCAUAAGCAUAGAUAAUAUGCAGUUAGUGAUGUUAAUACUAUGCCAGGUAGGUCGCCCUGCUAGGC [KL-SSArg B7] | 752 nM | 457 nM | 688 nM | 623 nM | 537 nM
UAUACUAGACAAGAGAGAAUUCUCUCAAGAGAGGAUAUCCGAAUUCGGAGAAGGCUCUCUCAGUGAUGUUGGGAAUAGUCUAGAA [AK6 SS FMN A] | 150 nM | 151 nM | 188 nM | 229 nM | 177 nM
